Laboratory results as given in patent US20230129812A1, “COMPOSITIONS AND METHODS FOR TREATING PULMONARY HYPERTENSION” (Acceleron Pharma Inc., priority 2020, published 2023).
“Also recorded” adds a separate entry of the source.

Legend:
[1] = molecular target: T1, BMP10 (Homo sapiens, UniProt O95393); experiment: A-204 Reporter Gene Assay (Example 13); format: cell-based
T1 sequence (O95393 317-424): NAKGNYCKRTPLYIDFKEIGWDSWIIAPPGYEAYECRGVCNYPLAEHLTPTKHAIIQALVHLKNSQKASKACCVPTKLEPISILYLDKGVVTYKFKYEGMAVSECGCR
Text: (§1) In addition, an A-204 Reporter Gene Assay was used to evaluate the effects of ALK4-Fc:ActRIIB-Fc heterodimer and ActRIIB-Fc:ActRIIB-Fc homodimer on signaling by activin A, activin B, GDF11, GDF8, BMP10, and BMP9. Cell line: Human Rhabdomyosarcoma (derived from muscle). Reporter vector: pGL3(CAGA)12 (as described in Dennler et al, 1998, EMBO 17: 3091-3100). The CAGA12 motif is present in TGFβ responsive genes (PAI-1 gene), so this vector is of general use for factors signaling through Smads. An exemplary A-204 Reporter Gene Assay is outlined below. • Day 1: Split A-204 cells into 48-well plate. • Day 2: A-204 cells transfected with 10 ug pGL3(CAGA)12 or pGL3(CAGA)12(10 ug)+pRLCMV (1 ug) and Fugene. • Day 3: Add factors (diluted into medium+0.1% BSA). Inhibitors need to be pre-incubated with Factors for about one hr before adding to cells. About six hrs later, cells are rinsed with PBS and then lysed.
(§2) Following the above steps, a Luciferase assay was performed.

[2] = molecular target: T2, BMP9 (Homo sapiens, UniProt Q9UK05); experiment: A-204 Reporter Gene Assay (Example 13); format: cell-based
T2 sequence (Q9UK05 320-429): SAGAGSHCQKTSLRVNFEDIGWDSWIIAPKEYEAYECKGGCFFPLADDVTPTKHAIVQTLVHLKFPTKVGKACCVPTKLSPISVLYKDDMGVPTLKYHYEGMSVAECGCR
Text: as §1, §2

[3] = molecular target: T3, activin B (Homo sapiens, UniProt P09529); experiment: A-204 Reporter Gene Assay (Example 13); format: cell-based
T3 sequence (P09529 293-407): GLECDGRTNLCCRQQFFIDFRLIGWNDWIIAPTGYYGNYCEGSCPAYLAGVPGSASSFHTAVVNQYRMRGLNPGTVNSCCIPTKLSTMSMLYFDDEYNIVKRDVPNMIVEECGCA
Text: as §1, §2

[4] = molecular target: T1, BMP10; experiment: Biacore ligand binding profile, ALK4-Fc:ActRIIB-Fc heterodimer vs homodimers, anti-Fc capture (Example 13, Table 13)
Description: (§3) A Biacore™-based binding assay was used to compare ligand binding selectivity of the ALK4-Fc:ActRIIB-Fc heterodimeric complex described above with that of ActRIIB-Fc and ALK4-Fc homodimer complexes. The ALK4-Fc:ActRIeB-Fc heterodimer, […], and ALK4-Fc homodimer were independently captured onto the system using an anti-Fc antibody. Ligands were injected and allowed to flow over the captured receptor protein. Results are summarized in Table 13 below, in which ligand off-rates (kd) most indicative of effective polypeptides are denoted in bold.

[5] = molecular target: T4, BMP6 (Homo sapiens, UniProt P22004); experiment: as above
T4 sequence (P22004 375-513): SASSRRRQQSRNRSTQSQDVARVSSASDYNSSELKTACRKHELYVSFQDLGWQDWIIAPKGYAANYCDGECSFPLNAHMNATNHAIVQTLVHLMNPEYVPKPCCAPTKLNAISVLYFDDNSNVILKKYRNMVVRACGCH
Description: as §3

[6] = molecular target: T2, BMP9; experiment: as above
Description: as §3

[7] = molecular target: T5, GDF11 (Homo sapiens, UniProt O95390); experiment: as above
T5 sequence (O95390 299-407): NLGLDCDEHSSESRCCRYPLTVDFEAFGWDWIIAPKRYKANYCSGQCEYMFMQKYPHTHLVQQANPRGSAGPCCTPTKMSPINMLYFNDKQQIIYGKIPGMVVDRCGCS
Description: as §3

[8] = molecular target: T6, GDF3 (Homo sapiens, UniProt Q9NR23); experiment: as above
T6 sequence (Q9NR23 251-364): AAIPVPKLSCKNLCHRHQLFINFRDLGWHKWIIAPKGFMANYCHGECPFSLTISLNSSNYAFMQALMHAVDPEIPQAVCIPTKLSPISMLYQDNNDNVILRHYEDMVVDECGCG
Description: as §3

[9] = molecular target: T7, GDF8 (Homo sapiens, UniProt O14793); experiment: as above
T7 sequence (O14793 267-375): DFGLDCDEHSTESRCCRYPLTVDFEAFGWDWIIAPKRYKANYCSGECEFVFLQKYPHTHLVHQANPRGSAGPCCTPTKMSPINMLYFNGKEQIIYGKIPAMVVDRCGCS
Description: as §3

[10] = molecular target: T8, activin A (Homo sapiens, UniProt P08476); experiment: as above
T8 sequence (P08476 311-426): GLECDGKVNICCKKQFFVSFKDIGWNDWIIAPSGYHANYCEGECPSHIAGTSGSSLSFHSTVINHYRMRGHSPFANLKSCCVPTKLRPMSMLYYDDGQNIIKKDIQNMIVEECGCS
Description: as §3

[11] = molecular target: T3, activin B; experiment: as above
Description: as §3

B1: ALK4-Fc:ActRIIB-Fc heterodimer: heteromeric complex of extracellular domains of human ActRIIB and human ALK4, each separately fused to an Fc domain with a linker (protein)
chain 1: GRGEAETRECIYYNANWELERTNQSGLERCEGEQDKRLHCYASWRNSSGTIELVKKGCWLDDFNCYDRQECVATEENPQVYFCCCEGNFCNERFTHLPEAGGPEVTYEPPPTAPTGGGTHTCPPCPAPELLGGPSVFLFPPKPKDTLMISRTPEVTCVVVDVSHEDPEVKFNWYVDGVEVHNAKTKPREEQYNSTYRVVSVLTVLHQDWLNGKEYKCKVSNKALPAPIEKTISKAKGQPREPQVYTLPPSRKEMTKNQVSLTCLVKGFYPSDIAVEWESNGQPENNYKTTPPVLKSDGSFFLYSKLTVDKSRWQQGNVFSCSVMHEALHNHYTQKSLSLSPGK
chain 2: SGPRGVQALLCACTSCLQANYTCETDGACMVSIFNLDGMEHHVRTCIPKVELVPAGKPFYCLSSEDLRNTHCCYTDYCNRIDLRVPSGHLKEPEHPSMWGPVETGGGTHTCPPCPAPELLGGPSVFLFPPKPKDTLMISRTPEVTCVVVDVSHEDPEVKFNWYVDGVEVHNAKTKPREEQYNSTYRVVSVLTVLHQDWLNGKEYKCKVSNKALPAPIEKTISKAKGQPREPQVYTLPPSREEMTKNQVSLTCLVKGFYPSDIAVEWESNGQPENNYDTTPPVLDSDGSFFLYSDLTVDKSRWQQGNVFSCSVMHEALHNHYTQKSLSLSPG
B1 was tested, and the “inhibition of BMP10 signaling” value [1] was “significantly reduced”, the “inhibition of BMP9 signaling” value [2] was “significantly reduced” and the “inhibition of activin B signaling” value [3] was “potent inhibitors”. The “BMP10 binding” value ([4]; Example 13) was “substantially reduced binding”, the ka ([4]; ligand BMP10, Table 13) was 5.6e+07 M⁻¹ s⁻¹ and the kd ([4]; ligand BMP10, Table 13) was 0.0041 s⁻¹. The “BMP6 binding” value ([5]; Example 13) was “intermediate-level binding”, the ka ([5]; ligand BMP6, Table 13) was 2e+06 M⁻¹ s⁻¹ and the kd ([5]; ligand BMP6, Table 13) was 0.0055 s⁻¹. The “BMP9 binding” value ([6]; Example 13) was “substantially reduced binding; also recorded: low or no observable affinity”, the kd ([6]; ligand BMP9, Table 13) was “Transient*” and the “GDF11 binding” value ([7]; Example 13) was “strong binding”. The ka ([7]; ligand GDF11, Table 13) was 3.8e+07 M⁻¹ s⁻¹, the kd ([7]; ligand GDF11, Table 13) was 0.00011 s⁻¹ and the “GDF3 binding” value ([8]; Example 13) was “substantially reduced binding”. The ka ([8]; ligand GDF3, Table 13) was 3.4e+06 M⁻¹ s⁻¹, the kd ([8]; ligand GDF3, Table 13) was 0.017 s⁻¹ and the “GDF8 binding” value ([9]; Example 13) was “strong binding”. For the same molecule, the ka ([9]; ligand GDF8, Table 13) was 390000 M⁻¹ s⁻¹, the kd ([9]; ligand GDF8, Table 13) was 0.00021 s⁻¹ and the “activin A binding” value ([10]; Example 13) was “strong binding”. The ka ([10]; ligand Activin A, Table 13) was 1.3e+07 M⁻¹ s⁻¹, the kd ([10]; ligand Activin A, Table 13) was 0.00015 s⁻¹ and the “activin B binding” value ([11]; Example 13) was “enhanced binding to activin B compared with either homodimer”. It also gave a ka ([11]; ligand Activin B, Table 13) of 7.1e+06 M⁻¹ s⁻¹ and a kd ([11]; ligand Activin B, Table 13) of 4e-05 s⁻¹.
